This assay deals with T1, p65 subunit of NF-kB, full-length, in vitro translated (UniProt Q04206 1-551, limits assumed, 35S-methionine labeled (pull-down assay)).
T1 construct: mature; In the pull-down it was translated in rabbit reticulocyte lysate with 35S-methionine; in the cotransfections it was expressed from pCI; also called p65 Rel domain protein
The assay is described as follows: GST pull-down, 35S-labeled in vitro translated p65. Here is the method:
A series of GST-ESE-1 fusion proteins were generated by PCR with specific primers to contain in frame restriction enzyme sites and sequenced to confirm that there were no mutations introduced by the PCR. GST-ESE-1 fusion proteins were prepared as previously described. 35S-methionine labeled in vitro translated full-length p50 and p65 were incubated with equal amounts of GST-ESE-1 fusion proteins or GST on agarose beads in 200 ul of NETN(0.5% Nonidet P-40, 1 mM EDTA, 20 mM Tris-HCl, pH 8.0, 100 mM NaCl) for 3 h at 4 degrees C. with gentle shaking. Bound p50 or p65 proteins were then eluted after three washings with NETN buffer and analyzed on a 12% SDS-polyacrylamide gel.

Experimental findings from US6869929B2, “Use of transcription factors for treating inflammation and other diseases” (Beth Israel Deaconess Medical Center, priority 2000, dated 2005) are described below.

T1 sequence (Q04206 whole entry, the tested form may be a part): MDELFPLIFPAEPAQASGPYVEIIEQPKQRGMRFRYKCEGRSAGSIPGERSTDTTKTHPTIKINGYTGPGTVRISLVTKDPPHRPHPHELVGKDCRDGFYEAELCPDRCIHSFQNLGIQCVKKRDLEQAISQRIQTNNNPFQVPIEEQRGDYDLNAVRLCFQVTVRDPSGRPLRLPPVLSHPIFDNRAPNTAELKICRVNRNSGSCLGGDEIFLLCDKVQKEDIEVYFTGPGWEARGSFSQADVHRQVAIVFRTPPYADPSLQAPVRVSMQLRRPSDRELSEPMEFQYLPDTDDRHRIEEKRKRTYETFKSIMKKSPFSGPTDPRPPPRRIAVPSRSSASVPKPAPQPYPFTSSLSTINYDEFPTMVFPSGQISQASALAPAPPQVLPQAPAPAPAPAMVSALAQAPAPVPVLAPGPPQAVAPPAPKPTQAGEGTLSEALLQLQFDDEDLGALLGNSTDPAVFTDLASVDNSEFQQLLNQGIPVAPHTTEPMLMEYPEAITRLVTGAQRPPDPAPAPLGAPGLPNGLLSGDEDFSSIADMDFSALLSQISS

B1: GST-ESE-1 fusion protein, full length ESE-1 (other, UniProt P78545 1-371, looked up)
chain: MAATCEISNIFSNYFSAMYSSEDSTLASVPPAATFGADDLVLTLSNPQMSLEGTEKASWLGEQPQFWSKTQVLDWISYQVEKNKYDASAIDFSRCDMDGATLCNCALEELRLVFGPLGDQLHAQLRDLTSSSSDELSWIIELLEKDGMAFQEALDPGPFDQGSPFAQELLDDGQQASPYHPGSCGAGAPSPGSSDVSTAGTGASRSSHSSDSGGSDVDLDPTDGKLFPSDGFRDCKKGDPKHGKRKRGRPRKLSKEYWDCLEGKKSKHAPRGTHLWEFIRDILIHPELNEGLMKWENRHEGVFKFLRSEAVAQLWGQKKKNSNMTYEKLSRAMRYYYKREILERVDGRRLVYKFGKNSSGWKEEEVLQSRN
notes: mature; GST fusion on agarose beads in the pull-down; also called full length ESE-1 protein; not shown: glutathione S-transferase (GST) fusion partner
For the molecule B1, the binding result is recorded as “no binding”.
